{"source": "patent US8580269B2", "about": "“Survivin peptides for autoimmune therapies” (Health Research, Inc., priority 2007, dated 2013)", "key": {"HLA-A*0201 [1]": {"molecular_target": "T1, HLA-A*0201 (Homo sapiens, UniProt P04439, D140Y/D185E/D98H/E176V/E277Q/G131W/G231S/I119V/I121R/I166T/I218V/L300P/L318F/N151K/N90K/P208A/P217A/Q86G/Q94H/R138H/R169H/T345S)", "experiment": "MHC class I peptide competitive displacement assay", "settings": "displacement of labeled HPV18-27, FIG. 4A-B", "from_the_text": "(§1) FIGS. 4A, 4B and 4C provide a graphical representations of data from an analysis of HLA-A*0201 binding properties of survivin peptides. To obtain the data summarized in FIGS. 4A and 4B, survivin peptide epitopes were used in MHC class I peptide competitive displacement assays. IC50 represents the 50% inhibition concentration of survivin peptide required to displace a fluorescently labeled-known human MHC Class I ligand (HPV18-27). Positive control peptides (Flu & gp100) represent known immunogenic MHC class I ligands. Data represent mean fluorescence±S.E.M. of triplicate samples. FIG. 4C provides a graphical representation of data for specific HLA-A*0201 pentamer binding of wild type and altered survivin peptide epitopes.\n(§2) As such, both peptides will bind H-2 Kb (the murine MHC class I counterpart) to a similar extent in mice. […] However, it is in administration to humans that the peptides of the invention are expected to display their enhanced potential, since the alteration of 57C to M alters the wild type peptide so that it contains a sequence that facilitates improved interaction with human MHC I. This is supported by the disparate MHC class I binding characteristics of the wild type and M57 peptides (FIG. 4A-C). As determined by competitive peptide binding assays, SVN53-67/M57 binds HLA-A*0201 approximately 12 fold stronger than the wild type SVN53-67 (FIG. 4A-B). […]"}, "HLA-A*0201 [2]": {"molecular_target": "T1, HLA-A*0201", "experiment": "survivin/MHC Class I-specific pentamer binding", "from_the_text": "as §1, §2"}, "H2-K^b": {"molecular_target": "T2, H2-K^b (Mus musculus, UniProt P01901)", "T2 construct": "Upregulation of H2-K^b molecules on the surface of murine RMA-S cells; endogenous in cells; host or cells: murine RMA-S cells", "T2 sequence (P01901 22-369)": "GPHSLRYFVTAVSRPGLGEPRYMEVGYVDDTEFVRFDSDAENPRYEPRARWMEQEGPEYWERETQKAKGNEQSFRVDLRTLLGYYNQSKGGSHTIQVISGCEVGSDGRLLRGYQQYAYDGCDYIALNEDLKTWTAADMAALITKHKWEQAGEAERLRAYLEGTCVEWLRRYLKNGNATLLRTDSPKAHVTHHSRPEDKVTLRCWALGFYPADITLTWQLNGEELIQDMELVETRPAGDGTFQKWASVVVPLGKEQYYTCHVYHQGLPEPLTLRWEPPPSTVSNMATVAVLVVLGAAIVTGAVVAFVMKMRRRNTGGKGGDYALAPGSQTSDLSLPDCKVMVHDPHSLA", "T2 sequence (P01887 21-119 partner)": "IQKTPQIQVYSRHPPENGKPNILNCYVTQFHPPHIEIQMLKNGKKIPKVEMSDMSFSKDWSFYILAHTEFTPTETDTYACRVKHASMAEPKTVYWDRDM", "experiment": "MHC class I peptide binding assay, upregulation of H2-K^b on RMA-S cells", "format": "cell-based, murine", "settings": "100 μM peptide at 37° C., FIG. 3", "procedure": "To obtain the data presented in FIG. 3, survivin peptide epitopes were used in conventional MHC class I peptide binding assays. Mean fluorescence in FIG. 3 represents binding of SVN peptides to H2-K^b. Upregulation of H2-K^b molecules on the surface of murine RMA-S cells which are deficient in the expression of surface MHC class I molecules was used to determine actual survivin peptide binding in vitro. Data presented in FIG. 3 represent the binding of 100 μM peptide at 37° C."}, "GL261 cells": {"tested_on": "GL261 cells", "experiment": "intracranial survival study in GL261 murine glioma model", "format": "in vivo, C57BL/6 mice", "settings": "peptide loaded DC vaccine, GL261-C57BL/6 glioma model, FIG. 6", "procedure": "FIG. 6 provides a graphical representation of data obtained from intracranial survival studies in a GL261 murine model utilizing altered peptides based on survivin amino acids 53-67. The peptides were administered using peptide loaded dendritic cell (DC) vaccines or as Keyhole Limpet Hemocyanin (KLH) conjugates. To obtain the data presented in FIG. 6, mice were intracranially implanted with 1×10^5 GL261 cells and were treated with survivin peptide DC vaccines. C57BL/6 mice were immunized with SVN57-64 based altered peptides, or OVA258-265 peptide loaded DC2.4 cells as well as a direct subcutaneous injection of 100 ug SVN 53-67/M57-KLH peptide in Incomplete Freund's Adjuvant (IFA) plus 100 ug GM-CSF. Vaccinations began 4 days after tumor cell implantation and were repeated (boosted) every 7 days to simulate a therapeutic setting. Survival was plotted according to Kaplan-Meier methods. Long-term survivors were confirmed tumor-free by high field strength MRI."}}}
{"substance": "DLAQMFFCFKELEGW (SVN53-67/M57 with C to M change)", "values": [{"measurement": "HLA-A*0201 binding relative to wild type SVN53-67", "setting": "HLA-A*0201 [1]", "value": "approximately 12 fold"}, {"measurement": "increase of MHC I binding relative to the wild type sequence", "setting": "HLA-A*0201 [2]; in situ binding assays for HLA-A*0201, FIG. 2 and FIG. 4C", "value": "approximately 73 fold"}]}
{"substance": "T L G E F L K L [SVN-97]", "values": [{"measurement": "binding of SVN peptides to H2-K^b (mean fluorescence)", "setting": "H2-K^b", "value": "less than SVN 57-64 wt, and considerably less than SVN 57-64/M57"}]}
{"substance": "M F F C F K E L (MFFCFKEL; SVN-57-64/M57 mutant peptide)", "values": [{"measurement": "survival compared to wild type peptide", "setting": "GL261 cells", "value": "enhances survival over the wild type peptide"}]}
{"substance": "SVN56-64/M57: core peptide, survivin 56-64 with the C>M alteration at position 57 (QMFFCFKEL)", "values": [{"measurement": "HLA-A*0201 binding relative to wild type SVN56-64", "setting": "HLA-A*0201 [2]; pentamer, FIG. 4C", "value": "approximately 73 fold"}]}
